Assay results published in patent publication US20250011423A1 (ASCENDO BIOTECHNOLOGY, published 2025).
Residue numbers refer to the chain shown, from its start.

T1: human TREML1 ECD (human, UniProt Q86YW5 16-162)
T1 construct: Any tags are not described; also called soluble TREML1; soluble TLT1
T1 sequence: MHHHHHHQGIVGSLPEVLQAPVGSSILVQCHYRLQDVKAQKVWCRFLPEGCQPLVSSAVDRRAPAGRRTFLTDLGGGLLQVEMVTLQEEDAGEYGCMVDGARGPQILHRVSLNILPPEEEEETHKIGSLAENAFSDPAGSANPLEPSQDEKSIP

T2: mouse TREML1 ECD (mouse, UniProt Q8K558 21-175)
T2 construct: also called murine TREML1 ECD
T2 sequence: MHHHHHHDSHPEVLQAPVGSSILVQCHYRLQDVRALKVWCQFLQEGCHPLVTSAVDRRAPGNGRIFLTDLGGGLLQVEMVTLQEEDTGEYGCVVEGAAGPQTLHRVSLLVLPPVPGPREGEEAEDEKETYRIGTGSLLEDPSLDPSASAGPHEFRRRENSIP

B1: Anti-TREML1 Antibody Clone 18D8 (antibody, V domains shown)
VH: EVQVQQSGPELVNPGASVRLSCKASGYIFTDYVIHWVRQKPGQGLEWIGYMNPYTDGPKYSDKIKDKAILTSDRSSNTVYMELRSLTSEDSAVYFCARDFNYYVGAMDFWGQGTSVTVSS
VL: DVVLTQTPLSLPVSLGDQASVSCRSSQSLLHSNGNTYLHWYLQKPGQSPKLLIYKVSNRFSGVPDRFTGSGSGTDFTLKISRVEAEDLGVYFCSQSTHIWTFGGGTKLEIK
notes: It was detected with anti-mouse IgG
B2: Anti-TREML1 Antibody Clone 27D3 (antibody, V domains shown)
VH: DVQLQQSGPELVKPGASVKMSCKASGYTFTEYVIHWVKQRPGQGLEWFGYFNPYTGGSKFNEKFKDKATLTSDRSSNTVYMELYSLTSEDSAVYYCARDFNYYVGAMDYWGQGTSVTVSS
VL: B1 VL with V3A, V21I, L30V, P45S, T68S, G73V, D75E, T97S, K107R
notes: as for B1
B3: Anti-TREML1 Antibody Clone 23F10 (antibody, V domains shown)
VH: EVQLQQSGPELVRPGASVKVSCKASGYIFTDYVIHWVKQKPGQGLEWFGYINPYTGGPKYSETARGKATLTSDSSSNTAYMVLTSLTSDDSAVYYCTRDFNYYVGAMDFWGQGTSVTVSS
VL: AAVLTQTPLSLPVSLGDQASISCRSTQSLVHSNGNTYVHWYLQKAGQSPKLLIYKVSNRFSGVPDRFSGSGSGTDFTLKISRVEAEDLGVYFCSQSTYVWTFGGGTKLEIE
notes: as for B1
B4: Anti-TREML1 Antibody Clone 29F4 (antibody, V domains shown)
VH: B3 VH with R65K, D89E
VL: B3 VL with A1G, R24K, S68I
notes: as for B1
B5: Anti-TREML1 Antibody Clone 26A6 (antibody, V domains shown)
VH: EVKLVESGGGLVQPGGSRKLSCAASGFTFSDYGMAWVRQAPGKGPEWIAFISNLAYRIYYADTVTGRFTISRENAKNTLYLEMSSLRSEDSAIYYCVREDYGNNGAMDYWGQGTSVTVSS
VL: DVLMTQTPLSLPVSLGDQASISCRSSQSIVHSNGNTYLEWYLQKPGQSPKLLIYKVSNRFSGVPDRFSGSGSGTDFTLKISRVEAEDLGVYYCFQGSHVPPTFGGGTKLEIK
notes: It was detected with anti-mouse IgG, so it is a mouse antibody
B6: Anti-TREML1 Antibody Clone 28A9 (antibody, V domains shown)
VH: EVQLQQSGPELVKPGASVKMSCKASGYTFTNYVMHWVKQKPGQGLEWIGYFNPYNGHAKYSEKFTGKATLTSDRSSSTAYMELNSLTSEDSAVYYCTRDFNYYVGAMDYWGQGTSVTVSS
VL: DVVMTQSPLSLPVNLGDHASISCRSSQSLIHSNGNTYLHWYLQKPGQSPKLLVYQVSKRFSGVPDRFSGSGSGTDFTLKISRVEAEDLGVYFCSQSTHIWTFGGGTTLEIK
notes: as for B1

The binders below were run against T1, human TREML1 ECD (assay: solid phase binding assay (ELISA), antigen coated).
Description: (§1) To investigate the TREML1/I-domain of CD11 b interaction, 5 μg/ml of recombinant I-domain of CD11 b (SEQ ID: 1) and BSA (negative control) proteins were coated separately on 96 well plates and incubated overnight at 4° C. Plates were added the blocking buffer (2% BSA in PBS) to avoid the nonspecific binding for 2 hours (hrs) at room temperature. A serial diluted TREML1 ECD was added and allowed to incubate at room temperature for 2 hrs. 1ug/ml of anti-TREML1 antibody (MAB2394, R&D systems) was added for 1 hr. Next, the secondary antibody with HRP labeling, anti-Rat IgG-HRP, was added to the plate and incubated for 30 minutes at room temperature. Plates were washed thrice with 0.05% tween 20 PBS buffer (PBST) between each step. Finally, TMB substrate was added and incubated for 10-15 min to detect HRP labeling antibody. After that, a stop solution of 1N HCL was added to stop the reaction. Absorbance at OD450/540 nm was measured by a microplate reader. To measure the half-maximal saturation binding of anti-TREML1 antibodies to TREML1, 5 μg/ml of human TREML1 ECD (SEQ ID: 2) or mouse TREML1 ECD (SEQ ID: 3) were coated on 96 well plates and incubated overnight at 4° C. Plates were added the blocking buffer (2% BSA in PBS) to avoid the nonspecific binding for 2 hr at room temperature. A serial diluted anti-TREML1 antibody was added and allowed to incubate at room temperature for 2 hr. Next, the secondary antibody with HRP labeling, anti-mouse IgG-HRP, was added to the plate and incubated for 30 minutes at room temperature. Plates were washed three times with 0.05% tween20 PBS buffer (PBST) between each step. Finally, TMB substrate was added and incubated for 10-15 min to detect HRP labeling antibody. After that, a stop solution of 1N HCL was added to stop the reaction. Absorbance at OD450/540 nm was measured by a microplate reader.

Binder | EC50
B1 | 0.25 nM
B2 | 0.31 nM
B3 | 0.27 nM
B4 | 0.18 nM
B5 | 0.32 nM
B6 | 0.3 nM

The binders below were run against T2, mouse TREML1 ECD (assay: solid phase binding assay (ELISA), antigen coated).
Description: as §1

Binder | EC50
B1 | 33.4 nM
B2 | 24.9 nM
B3 | 0.82 nM
B4 | 0.94 nM
B5 | 0.4 nM
B6 | 2.48 nM
